For the series, the target named is His-AtSF1(1-562) (Arabidopsis thaliana, UniProt Q9LU44 1-562). As to the kind of experiment: EMSA; 23 C; unlabeled self competitor (10-200x) reduces shift; LightShift Chemiluminescent RNA EMSA kit, 23 C, 30 min, 8% native PAGE; buffer, salt and pH not stated. The following applies: protein: recombinant; tags: His; label: 3' biotin. Background: Mobility shift assays separate free from complexed probe on a gel.
Sequence of His-AtSF1(1-562) (Q9LU44 1-562): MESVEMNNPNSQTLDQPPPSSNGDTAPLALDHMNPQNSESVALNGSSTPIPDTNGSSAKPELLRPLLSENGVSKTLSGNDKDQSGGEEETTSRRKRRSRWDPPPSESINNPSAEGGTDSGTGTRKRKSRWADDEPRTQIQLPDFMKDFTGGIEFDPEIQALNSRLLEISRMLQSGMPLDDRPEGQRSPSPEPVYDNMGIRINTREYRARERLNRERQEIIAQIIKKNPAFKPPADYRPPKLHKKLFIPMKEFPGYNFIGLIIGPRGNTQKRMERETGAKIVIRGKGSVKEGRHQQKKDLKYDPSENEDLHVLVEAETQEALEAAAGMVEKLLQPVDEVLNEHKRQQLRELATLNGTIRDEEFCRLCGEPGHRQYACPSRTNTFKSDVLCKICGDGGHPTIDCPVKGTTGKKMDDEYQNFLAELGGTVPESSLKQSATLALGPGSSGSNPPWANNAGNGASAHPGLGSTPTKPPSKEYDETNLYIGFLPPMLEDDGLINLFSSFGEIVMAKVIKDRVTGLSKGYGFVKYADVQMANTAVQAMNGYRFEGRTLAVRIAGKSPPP

B1: FLM BP1 (ssRNA)
RNA: UUCUAAUGCAUUUUUGUUUUAUCU
For B1, the binding result is “binds”.

B2: FLM BP2 (ssRNA)
RNA: UUCUAAUAUUCUUCUGGAUGCGGUUUUUGGUGUUAU
As to B2, the binding result is recorded as “binds”.

The values are drawn from article PMC7735993, “Role of Arabidopsis Splicing factor SF1 in Temperature-Responsive Alternative Splicing of FLM pre-mRNA”.
